Earlier results as cited in publication PMC10648573.
Like-named read-outs stand apart in the source and are kept apart here.

Columns and labels:
[1] = target: NGALR 1-105 (Homo sapiens) (UniProt Q8WUG5)
24p3R (Homo sapiens) = 24p3R (Homo sapiens) (UniProt Q8WUG5)
megalin (Homo sapiens) = megalin (Homo sapiens) (UniProt P98164)
[2] = target: NGALR 1-105 (Homo sapiens) (UniProt Q8WUG5); remark: listed apart in the source

UniProt P98164, sequence (P98164 26-4423): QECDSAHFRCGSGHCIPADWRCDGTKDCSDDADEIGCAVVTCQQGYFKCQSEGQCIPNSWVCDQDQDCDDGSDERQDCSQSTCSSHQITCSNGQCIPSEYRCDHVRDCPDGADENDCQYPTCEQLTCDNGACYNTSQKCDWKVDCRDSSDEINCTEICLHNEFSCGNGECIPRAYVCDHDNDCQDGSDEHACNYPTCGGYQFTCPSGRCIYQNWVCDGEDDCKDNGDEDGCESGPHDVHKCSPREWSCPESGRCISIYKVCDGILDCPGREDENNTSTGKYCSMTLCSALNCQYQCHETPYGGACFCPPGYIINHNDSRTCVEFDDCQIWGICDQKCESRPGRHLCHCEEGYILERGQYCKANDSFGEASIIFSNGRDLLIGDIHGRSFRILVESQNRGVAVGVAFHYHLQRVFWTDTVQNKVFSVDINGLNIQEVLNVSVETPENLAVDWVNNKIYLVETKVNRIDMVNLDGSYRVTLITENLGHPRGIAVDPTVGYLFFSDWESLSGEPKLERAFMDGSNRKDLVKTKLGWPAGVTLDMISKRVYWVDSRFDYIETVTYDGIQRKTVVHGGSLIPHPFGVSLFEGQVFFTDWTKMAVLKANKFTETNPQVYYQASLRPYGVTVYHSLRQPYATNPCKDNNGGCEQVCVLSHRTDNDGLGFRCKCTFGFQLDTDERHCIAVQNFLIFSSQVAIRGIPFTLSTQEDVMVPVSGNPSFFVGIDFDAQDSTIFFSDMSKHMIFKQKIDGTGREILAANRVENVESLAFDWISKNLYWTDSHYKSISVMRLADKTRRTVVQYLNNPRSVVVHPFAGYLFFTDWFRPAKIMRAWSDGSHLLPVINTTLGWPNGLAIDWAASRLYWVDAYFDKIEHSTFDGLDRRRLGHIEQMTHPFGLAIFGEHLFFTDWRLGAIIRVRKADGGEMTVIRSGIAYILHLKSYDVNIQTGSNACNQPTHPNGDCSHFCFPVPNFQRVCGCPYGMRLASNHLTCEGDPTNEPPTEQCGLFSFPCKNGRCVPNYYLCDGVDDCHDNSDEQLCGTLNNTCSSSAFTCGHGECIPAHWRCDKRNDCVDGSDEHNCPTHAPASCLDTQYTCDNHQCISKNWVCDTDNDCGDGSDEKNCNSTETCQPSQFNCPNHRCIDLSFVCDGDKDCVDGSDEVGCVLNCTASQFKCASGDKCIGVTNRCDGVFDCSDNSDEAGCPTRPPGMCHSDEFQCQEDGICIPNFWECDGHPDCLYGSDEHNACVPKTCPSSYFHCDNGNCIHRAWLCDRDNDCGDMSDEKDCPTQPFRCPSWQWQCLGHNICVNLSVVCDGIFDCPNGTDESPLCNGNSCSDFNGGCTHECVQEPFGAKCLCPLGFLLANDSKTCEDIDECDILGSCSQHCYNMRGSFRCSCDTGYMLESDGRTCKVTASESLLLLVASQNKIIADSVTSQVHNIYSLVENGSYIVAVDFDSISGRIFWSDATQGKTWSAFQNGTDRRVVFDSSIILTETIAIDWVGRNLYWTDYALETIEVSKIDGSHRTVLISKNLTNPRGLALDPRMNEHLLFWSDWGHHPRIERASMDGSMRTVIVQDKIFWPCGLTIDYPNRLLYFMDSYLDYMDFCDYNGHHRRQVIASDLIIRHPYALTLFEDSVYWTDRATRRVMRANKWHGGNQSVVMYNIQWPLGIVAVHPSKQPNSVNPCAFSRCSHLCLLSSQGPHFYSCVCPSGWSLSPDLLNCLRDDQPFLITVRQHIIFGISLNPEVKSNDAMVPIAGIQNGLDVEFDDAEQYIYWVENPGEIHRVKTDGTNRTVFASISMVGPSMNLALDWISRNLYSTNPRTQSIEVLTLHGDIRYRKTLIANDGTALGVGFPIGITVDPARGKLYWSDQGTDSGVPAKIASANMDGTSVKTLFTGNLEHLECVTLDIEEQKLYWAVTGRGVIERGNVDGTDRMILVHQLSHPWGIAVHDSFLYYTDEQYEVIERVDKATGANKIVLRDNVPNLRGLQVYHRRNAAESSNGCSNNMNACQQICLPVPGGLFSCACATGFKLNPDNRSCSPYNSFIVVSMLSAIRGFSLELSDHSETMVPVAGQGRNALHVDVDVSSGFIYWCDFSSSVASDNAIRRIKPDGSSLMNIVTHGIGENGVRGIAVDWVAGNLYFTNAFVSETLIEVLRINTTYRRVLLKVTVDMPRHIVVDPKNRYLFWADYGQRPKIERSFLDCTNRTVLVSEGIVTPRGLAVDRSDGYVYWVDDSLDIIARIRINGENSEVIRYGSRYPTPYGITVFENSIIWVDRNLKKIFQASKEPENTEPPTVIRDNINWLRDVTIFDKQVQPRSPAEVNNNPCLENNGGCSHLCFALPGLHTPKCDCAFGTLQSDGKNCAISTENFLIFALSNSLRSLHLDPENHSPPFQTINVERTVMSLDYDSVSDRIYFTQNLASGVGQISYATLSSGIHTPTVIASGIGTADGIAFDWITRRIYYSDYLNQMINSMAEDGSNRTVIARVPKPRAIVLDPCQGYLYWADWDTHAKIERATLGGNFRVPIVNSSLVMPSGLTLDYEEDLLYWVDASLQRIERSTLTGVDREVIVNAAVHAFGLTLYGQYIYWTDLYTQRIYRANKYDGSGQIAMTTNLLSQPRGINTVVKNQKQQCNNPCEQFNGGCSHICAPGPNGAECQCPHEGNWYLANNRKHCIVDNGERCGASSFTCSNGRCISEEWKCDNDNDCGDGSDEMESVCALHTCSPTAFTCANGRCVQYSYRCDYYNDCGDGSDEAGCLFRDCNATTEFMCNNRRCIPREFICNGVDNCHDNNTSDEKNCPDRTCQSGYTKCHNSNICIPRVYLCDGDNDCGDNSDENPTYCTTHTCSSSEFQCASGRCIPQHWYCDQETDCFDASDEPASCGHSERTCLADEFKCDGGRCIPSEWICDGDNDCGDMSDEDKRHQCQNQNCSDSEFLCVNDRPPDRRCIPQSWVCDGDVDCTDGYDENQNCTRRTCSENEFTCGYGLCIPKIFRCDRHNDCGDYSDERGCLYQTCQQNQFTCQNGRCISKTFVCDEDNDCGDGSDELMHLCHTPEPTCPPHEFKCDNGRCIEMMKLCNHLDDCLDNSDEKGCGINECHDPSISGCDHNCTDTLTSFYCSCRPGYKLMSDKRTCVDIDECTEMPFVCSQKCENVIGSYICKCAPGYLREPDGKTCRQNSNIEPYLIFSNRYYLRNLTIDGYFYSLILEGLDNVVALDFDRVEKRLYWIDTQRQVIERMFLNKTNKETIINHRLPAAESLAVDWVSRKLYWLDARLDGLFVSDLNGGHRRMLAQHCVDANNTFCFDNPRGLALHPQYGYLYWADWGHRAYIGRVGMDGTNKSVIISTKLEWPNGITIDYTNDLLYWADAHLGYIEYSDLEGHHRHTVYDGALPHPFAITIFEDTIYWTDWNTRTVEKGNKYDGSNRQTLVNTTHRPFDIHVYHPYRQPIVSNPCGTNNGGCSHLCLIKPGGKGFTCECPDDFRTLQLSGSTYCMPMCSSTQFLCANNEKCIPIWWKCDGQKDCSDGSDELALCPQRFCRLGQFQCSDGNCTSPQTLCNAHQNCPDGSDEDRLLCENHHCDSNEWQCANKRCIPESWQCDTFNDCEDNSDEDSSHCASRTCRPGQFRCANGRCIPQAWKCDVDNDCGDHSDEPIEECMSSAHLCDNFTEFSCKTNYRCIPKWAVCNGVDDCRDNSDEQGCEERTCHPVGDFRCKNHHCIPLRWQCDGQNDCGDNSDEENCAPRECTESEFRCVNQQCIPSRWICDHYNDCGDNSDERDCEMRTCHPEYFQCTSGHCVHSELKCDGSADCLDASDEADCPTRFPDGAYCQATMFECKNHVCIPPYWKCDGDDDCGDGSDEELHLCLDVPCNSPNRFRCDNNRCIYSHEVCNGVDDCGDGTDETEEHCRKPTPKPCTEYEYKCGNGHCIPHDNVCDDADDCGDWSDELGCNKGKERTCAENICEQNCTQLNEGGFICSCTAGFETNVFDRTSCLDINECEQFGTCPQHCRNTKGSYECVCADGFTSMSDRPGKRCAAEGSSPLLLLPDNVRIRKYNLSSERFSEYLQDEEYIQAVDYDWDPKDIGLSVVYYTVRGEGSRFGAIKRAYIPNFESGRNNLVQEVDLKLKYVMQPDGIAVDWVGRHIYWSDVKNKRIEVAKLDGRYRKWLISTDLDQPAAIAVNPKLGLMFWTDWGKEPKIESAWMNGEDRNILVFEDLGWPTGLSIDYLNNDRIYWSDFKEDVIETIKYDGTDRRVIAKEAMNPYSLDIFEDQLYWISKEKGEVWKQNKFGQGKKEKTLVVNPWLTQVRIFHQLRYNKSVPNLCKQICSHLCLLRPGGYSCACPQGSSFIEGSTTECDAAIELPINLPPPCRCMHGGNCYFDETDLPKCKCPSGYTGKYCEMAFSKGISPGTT

Kd [1]	Kd (24p3R (Homo sapiens))	Kd (megalin (Homo sapiens))	Kd [2]	Substance
8.5 µM				Lipocalin-2 (apo) (from UniProt P80188)
	0.092 nM	0.06 µM	20 µM	Lipocalin-2 (from UniProt P80188)
